The results in this text go back to IntAct's records for PubMed 18826409.

B1: Regulator of sigma D (Escherichia coli (strain K12)), P0AFX4 (parent)
chain: MLNQLDNLTERVRGSNKLVDRWLHVRKHLLVAYYNLVGIKPGKESYMRLNEKALDDFCQSLVDYLSAGHFSIYERILHKLEGNGQLARAAKIWPQLEANTQQIMDYYDSSLETAIDHDNYLEFQQVLSDIGEALEARFVLEDKLILLVLDAARVKHPA

Variants of B1 are the subject of the first assay. The settings on record: with rpod_ecoli rpoD.
In the case of MLNQLDNLTERVRESNKLVDRWLHVRKHLLVAYYNLVGIKPGKESYMRLNEKALDDFCQSLVDYLSAGHFSIYERILHKLEGNGQLARAAKIWPQLEANTQQIMDYYDSSLETAIDHDNYLEFQQVLSDIGEALEARFVLEDKLILLVLDAARVKHPA [G14E], the “effect of a mutation on the interaction” value is recorded as “increasing interaction strength”.

For the variant MLNQLDNLTERVRESNKLVDRWLHVRKHLLVAYFNLVGIKPGKESYMRLNEKALDDFCQSLVDYLSAGHFSIYERILHKLEGNGQLARAAKIWPQLEANTQQIMDYYDSSLETAIDHDNYLEFQQVLSDIGEALEARFVLEDKLILLVLDAARVKHPA [G14E;Y34F], the “effect of a mutation on the interaction” value is “increasing interaction strength”.

Consider MLNQLDNLTERVRGSNKLVDRWLHVRKHLLVAYFNLVGIKPGKESYMRLNEKALDDFCQSLVDYLSAGHFSIYERILHKLEGNGQLARAAKIWPQLEANTQQIMDYYDSSLETAIDHDNYLEFQQVLSDIGEALEARFVLEDKLILLVLDAARVKHPA [Y34F], for which the “effect of a mutation on the interaction” value was “decreasing interaction strength”.

In another assay the parent is B1. Particulars: with rpod_ecoli rpoD. This is another data set of the same source.
Turning to MLNQLDNLTERVRGSNKLVDRWLHVRKHLLVAYFNLVGIKPGKESYMRLNEKALDDFCQSLVDYLSAGHFSIYERILHKLEGNGQLARAAKIWPQLEANTQQIMDYYDSSLETAIDHDNYLEFQQVLSDIGEALEARFVLEDKLILLVLDAARVKHPA [Y34F], the “effect of a mutation on the interaction” value is given as “increasing interaction strength”.

As to MLNQLDNLTERVRGSNKLVDRWLHVRKHLLVAYYNLVGIKPGKESYMRLNEKALDDFCQSLVDYLSAGHFSIYERILHKLEGNGQLARAAKIWPQLEANTQQIMDYYDSSLETAIDHDNYLEFQQVLSDIGEALEARFVLENKLILLVLDAARVKHPA [D142N], the “effect of a mutation on the interaction” value is on record as “disrupting interaction strength”.
